From US12258605B2, “Alkane oxidation by modified hydroxylases” (The California Institute of Technology, priority 2005, dated 2025)

Assays:
[1] = Ethane hydroxylation to ethanol (rate, total turnover); assay type: biochemical
Description: Ethane hydroxylation by 53-5H was measured after 12-hour incubations of the enzyme in ethane-saturated buffer containing an ethanol-free NADPH regeneration system (commercial NADPH contains 2-3% ethanol). While the reaction is uncoupled to NADPH oxidation in the presence of ethane (660 min-1, see Table 2), 53-5H nevertheless consistently produces at least 50 equivalents of ethanol independent of the starting concentration of enzyme (see FIGS. 2 and 3). Over oxidation was tested by supplying ethanol as a substrate and monitoring ethanol depletion by gas chromatography and the production of acetaldehyde and acetic acid by ^13C NMR using ^13C-labeled ethanol. No (i.e. less than 10%, the detection limit of these experiments) over oxidation products were detected in these experiments (see FIG. 4). In general, the hydrophobic active sites in P450s assist in the release of singly-hydroxylated products.
Reactions on ethane were carried out similarly to those described for propane (Peters et al., J. Am. Chem. Soc. 125:13442 (2003); incorporated by reference herein). Because commercially-available NADPH contains 2-3% ethanol, an NADPH regeneration system was used. Thereby, the background ethanol concentration was reduced to approximately 1 μM. Ethane hydroxylation reactions were performed in 20 mL glass vials. A 5.0 mL reaction mixture contained 100, 200 or 500 nM purified protein in 0.1 M potassium phosphate buffer (pH 8.0) saturated with ethane and dioxygen. […] The vial was immediately topped with a septum, pressurized with 20 psi of ethane and stirred at 25° C. For determination of total turnover, the reaction was allowed to proceed for four hours. For rate determination the reaction was stopped at 0, 15 and 30 min. 50 μL of 5 mM 1-butanol was added to the reaction mixture as an internal standard. Ethanol and 1-butanol were subsequently derivatized to their corresponding alkyl nitrites. Control reactions were performed by repeating these steps without substrate and with inactivated protein, to correct for background levels of ethanol. […] Reactions with ethane and corresponding control reactions without ethane or with inactivated protein were carried out in triplicate. […]
Rates of ethanol formation were measured over 30 min using gas chromatography (GC) coupled to an electron capture detector (ECD) and are reported as nmol ethanol/min/nmol enzyme. […] Total turnover number (ttn) was measured using GC after completion of the reaction and is reported as nmol product/nmol protein. […] Initial rates of propanol and octanol formation were measured over 1 min by GC and are reported as nmol product/min/nmol protein. […] The “ee” of 2-octanol (main product) was measured by GC; the favored enantiomer is listed in parenthesis. […]

[2] = myristate; cited from earlier work

| Molecule | ethanol produced ([1]; 200 nM of mutant, typical reaction with ethane) | Ethane ttn ([1]; after completion of the reaction) | increase in total turnover of ethane to ethanol ([1]; compared to 53-5H) | Ethane Rate ([1]; ethanol formation over 30 min, GC-ECD, dash = no activity) | Coupling efficiency [2] |
| --- | --- | --- | --- | --- | --- |
| 35-E11: P450 BM-3 variant, SEQ ID NO:7: 53-5H substitutions plus E464G and I710T (protein, mutant P450 35-E11 protein sequence) TIKEMPQPKTFGELKNLPLLNTDKPVQALMKIADELGEIFKFEAPGCVTRYLSSQRLIKEACDESRFDKNLSQALKFFRDFSGDGLFTSWTHEINWKKAHNILLPSFSQQAMKGYHAMMVDIAVQLVQKWERLNADEHIEVSEDMTRLTLDTIGLCGFNYRFNSFYRDQPHPFIISMVRALDEVMNKLQRANPDDPAYDENKRQCQEDIKVMNDLVDKIIADRKARGEQSDDLLTQMLNGKDPETGEPLDDGNISYQIITFLIAGHETTSGLLSFALYFLVKNPHVLQKVVEEAARVLVDPVPSYKQVKQLKYVGMVLNEALRLWPTFPAFSLYAKEDTVLGGEYPLEKGDEVMVLIPQLHRDKTIWGDDVEEFRPERFENPSAIPQHAFKPFGNGQRACIGQQFALHEATLVLGMMLKHFDFEDHTNYELDIKETLTLKPEGFVVKAKSKKIPLGGIPSPSTGQSAKKVRKKAENAHNTPLLVLYGSNMGTAEGTARDLADIAMSKGFAPQVATLDSHAGNLPREGAVLIVTASYNGHPPDNAKQFVDWLDQASADEVKGVRYSVFGCGDKNWATTYQKVPAFIDETLAAKGAENIADRGEADASDDFEGTYEEWREHMWSDVAAYFNLDIENSEDNKSTLSLQFVDSAADMPLAKMHGAFSTNVVASKELQQPGSARSTRHLEIELPKEASYQEGDHLGVIPRNYEGTVNRVTARFGLDASQQIRLEAEEEKLAHLPLAKTVSVEELLQYVELQDPVTRTQLRAMAAKTVCPPHKVELEALLEKQAYKEQVLAKRLTMLELLEKYPACEMKFSEFIALLPSIRPRYYSISSSPRVDEKQASITVSVVSGEAWSGYGEYKGIASNYLAELQEGDTITCFISTPQSEFTLPKDPETPLIMVGPGTGVAPFRGFVQARKQLKEQGQSLGEAHLYFGCRSPHEDYLYQEELENAQSEGIITLHTAFSRMPNQPKTYVQHVMEQDGKKLIELLDQGAHFYICGDGSQMAPAVEATLMKSYADVHQVSEADARLWLQQLEEKGRYAKDVWAG | over 50 μM | 250 nmol product/nmol protein | five-fold | 0.4 nmol ethanol/min/nmol enzyme |  |
| Wild-type BM-3: wild-type cytochrome P450 BM-3 from Bacillus megaterium, SEQ ID NO:1 (protein, listed as Bacillus megaterium) TIKEMPQPKTFGELKNLPLLNTDKPVQALMKIADELGEIFKFEAPGRVTRYLSSQRLIKEACDESRFDKNLSQALKFVRDFAGDGLFTSWTHEKNWKKAHNILLPSFSQQAMKGYHAMMVDIAVQLVQKWERLNADEHIEVPEDMTRLTLDTIGLCGFNYRFNSFYRDQPHPFITSMVRALDEAMNKLQRANPDDPAYDENKRQFQEDIKVMNDLVDKIIADRKASGEQSDDLLTHMLNGKDPETGEPLDDENIRYQIITFLIAGHETTSGLLSFALYFLVKNPHVLQKAAEEAARVLVDPVPSYKQVKQLKYVGMVLNEALRLWPTAPAFSLYAKEDTVLGGEYPLEKGDELMVLIPQLHRDKTIWGDDVEEFRPERFENPSAIPQHAFKPFGNGQRACIGQQFALHEATLVLGMMLKHFDFEDHTNYELDIKETLTLKPEGFVVKAKSKKIPLGGIPSPSTEQSAKKVRKKAENAHNTPLLVLYGSNMGTAEGTARDLADIAMSKGFAPQVATLDSHAGNLPREGAVLIVTASYNGHPPDNAKQFVDWLDQASADEVKGVRYSVFGCGDKNWATTYQKVPAFIDETLAAKGAENIADRGEADASDDFEGTYEEWREHMWSDVAAYFNLDIENSEDNKSTLSLQFVDSAADMPLAKMHGAFSTNVVASKELQQPGSARSTRHLEIELPKEASYQEGDHLGVIPRNYEGIVNRVTARFGLDASQQIRLEAEEEKLAHLPLAKTVSVEELLQYVELQDPVTRTQLRAMAAKTVCPPHKVELEALLEKQAYKEQVLAKRLTMLELLEKYPACEMKFSEFIALLPSIRPRYYSISSSPRVDEKQASITVSVVSGEAWSGYGEYKGIASNYLAELQEGDTITCFISTPQSEFTLPKDPETPLIMVGPGTGVAPFRGFVQARKQLKEQGQSLGEAHLYFGCRSPHEDYLYQEELENAQSEGIITLHTAFSRMPNQPKTYVQHVMEQDGKKLIELLDQGAHFYICGDGSQMAPAVEATLMKSYADVHQVSEADARLWLQQLEEKGRYAKDVWAG |  |  |  |  | 88% |
